Experimental findings from US20060228299A1 (University of Texas, published 2006) are described below.

This experiment addresses T1, murine β2GPI (in normal mouse serum) (mouse, UniProt Q01339 20-345).
T1 construct: mature; also called mouse β2GPI
T1 sequence (looked up): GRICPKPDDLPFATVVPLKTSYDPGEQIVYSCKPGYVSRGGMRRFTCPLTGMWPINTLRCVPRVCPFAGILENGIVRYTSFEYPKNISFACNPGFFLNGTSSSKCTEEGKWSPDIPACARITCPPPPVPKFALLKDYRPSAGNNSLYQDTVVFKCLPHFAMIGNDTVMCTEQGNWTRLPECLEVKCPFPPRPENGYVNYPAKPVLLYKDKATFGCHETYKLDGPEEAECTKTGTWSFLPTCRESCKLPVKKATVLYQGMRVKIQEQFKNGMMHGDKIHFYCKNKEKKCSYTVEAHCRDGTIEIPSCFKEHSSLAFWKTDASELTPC
Nature of the experiment: immunoblot of 10% normal mouse serum. On the technique in general: Immunoblotting shows a protein as a band on a membrane.

B1: 3G4 mouse monoclonal antibody as used in Example XXX (converted to mouse IgG2a isotype, produced in NS0 cells) (antibody, V domains shown)
VH: EVQLQQSGPELEKPGASVKLSCKASGYSFTGYNMNWVKQSHGKSLEWIGHIDPYYGDTSYNQKFRGKATLTVDKSSSTAYMQLKSLTSEDSAVYYCVKGGYYGHWYFDVWGAGTTVTVSS
VL: DIQMTQSPSSLSASLGERVSLTCRASQDIGSSLNWLQQGPDGTIKRLIYATSSLDSGVPKRFSGSRSGSDYSLTISSLESEDFVDYYCLQYVSSPPTFGAGTKLELKR
notes: It was purified from serum-free media (SFM) or serum-containing media (SCM); also called 3G4 SFM; 3G4 SCM
For B1, the binding result is reported as “no binding (tested: 1 µg/ml)”.
